From the supplement of paper PMC10567573 come the findings set out here.

This data set is described as follows: protein stability index of a GFP-peptide fusion (GPS, HEK-293T) (PSI 1-6); higher = more stable.
Where [1] appears, read: treatment: DMSO, c terminus: a fixed tail appended.
[2] abbreviates: treatment: MLN4924 1 uM, 8 h, c terminus: a fixed tail appended.

± gives the standard deviation.
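Note: 24-mer peptide tiles fused after GFP, lentivirally expressed, FACS-sorted into six equal bins by GFP/DsRed ratio, decoded by Illumina sequencing, PSI is the read-weighted mean bin number.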

Take SFALYLAGFCMFVLSLVKKHYRLQ [CDS1]: the protein stability index worked out at 2.25 ± 0.36 under setting [1] and 2.04 ± 0.44 under setting [2]. For LGSAPLDQEPLLSIDLGTAHSAAV [NEK8] the same measures were 4.08 ± 0.22 and 4.11 ± 0.15. For MVVDFWTWEQTFQELIQEAKPRAT [RTP4] the same measures were 2.5 ± 0.49 and 2.2 ± 0.36. For RGNPELARLRPGLAVLGADERIFS [HAGHL] the same measures were 3.42 ± 0.47 and 3.65 ± 0.14. As for MFLAMLAVVSCASIGSGEPPTGN [CDK11A], the protein stability index reads like this: (treatment: DMSO, c terminus: native) 2.67 ± 0.36; (treatment: MLN4924 1 uM, 8 h, c terminus: native) 2.46 ± 0.39. VVPDVRSVVTTARMQVLKRQVQSL [SMARCE1]: the protein stability index by setting is: under setting [1], 2.5 ± 0.14; under setting [2], 2.85 ± 0.21. The like results for PRGSETERLLTPNPGYGTQAGPSP [MCOLN1] were, in that order, 4.41 ± 0.18 and 4.79 ± 0.28. For HFRGVSLNLTRKLAQQLCTALLFL [DYRK1B], the protein stability index runs as follows: under setting [1], 2.04 ± 0.4; under setting [2], 2.15 ± 0.23. For QIKAIRGSNEYTEGPSVVKRPAPR [SPRY1] the same measures were 4.05 ± 0.09 and 4.47 ± 0.3. For KCASDIFQASNPYLPTRGGTTMAS [TRIM55] the same measures were 2.89 ± 0.22 and 2.86 ± 0.16. The like results for KLQKEKEELERRFEDEVKRLGWQQ [MTUS2] were, in that order, 4.36 ± 0.35 and 4.6 ± 0.32.

Consider PSEHVQGKSPVNMVTVAMVAGQCE [ZNF649], for which the protein stability index by setting is: under setting [1], 4.14 ± 0.34; under setting [2], 4.26 ± 0.14.

On to ADWFMSLGVGLLTFASLETVGIYF [TMEM40], for which the protein stability index was determined as 3.37 ± 0.22 under setting [1] and 3.04 ± 0.52 under setting [2]. For VACFLTRGDLWISWEEGMKVFEEL [CRY1] the same measures were 2.67 ± 0.71 and 2.33 ± 0.39. Consider YLMKTKQFRLKEAFDYIKQRRSMV [DUSP5], for which the protein stability index runs as follows: under setting [1], 2.19 ± 0.38; under setting [2], 2.11 ± 0.33. Consider RQGNPSWKKQQKCDECGKIFSQSS [ZNF396], for which the protein stability index by setting is: under setting [1], 3.57 ± 0.33; under setting [2], 3.92 ± 0.11. For EPFGKERDAAIKKLATEAGVEVIV [CRY1] the same measures were 3.59 ± 0.22 and 3.48 ± 0.28. The like results for FGIEIEVTDINDNAPKFQAENLDV [PCDHGA10] were, in that order, 3.5 ± 0.56 and 3.98 ± 0.38. For TEFTLGDDKHYGGFTNKQLQSGQE [PTPRD] the same measures were 4.91 ± 0.2 and 4.77 ± 0.13. On to RRLEQRWGFGLEELYGLALRFFKE [ACBD3], for which the protein stability index amounted to 2.53 ± 0.8 under setting [1] and 2.31 ± 0.63 under setting [2]. The like results for NQPSGLIRTYLGRSPLVSGDESSL [RHOBTB3] were, in that order, 3.85 ± 0.25 and 3.84 ± 0.3. The like results for YIGTHEYPHFSHRPSTLQAASTPQ [OAS1] were, in that order, 2.61 ± 0.56 and 3.16 ± 0.48. As to HSLDLNISEKLTLLPTLYEIHSKT [RNF180], the protein stability index under setting [1] is 2.34 ± 0.26 and the protein stability index under setting [2] was 2.46 ± 0.42.

Take GLRASTSDGILRGNGTGYLPGRGR [RHOBTB2]: the protein stability index was 4.58 ± 0.26 under setting [1] and 4.58 ± 0.2 under setting [2]. For the sequence ERTKSRLVNTSENLSKSRKILRSM [VTI1B], the protein stability index under setting [1] was 3.79 ± 0.21 and the protein stability index under setting [2] worked out at 3.87 ± 0.19. For IIEVLSNALSKSSAPPITPECRQV [CHGB] the same measures were 2.29 ± 0.54 and 2.32 ± 0.22. The like results for CEHECVNADGSYLCQCHEGFALNP [MATN2] were, in that order, 4.77 ± 0.15 and 4.8 ± 0.4. The like results for LQHEERETRQKKLEVAMEEEGLAD [STK38L] were, in that order, 5.59 ± 0.28 and 5.56 ± 0.11. AKLVPMGFTTATEFHQRRSEIIQI [RAD51]: the protein stability index amounted to 2.56 ± 0.6 under setting [1] and 1.98 ± 0.12 under setting [2]. For KDLNENLAATQGLAHMIAECKKLF [DLC1] the same measures were 2.39 ± 0.45 and 2.3 ± 0.34. For QHKDQTAALPLAAEETANLPPSPP [MAP2] the same measures were 5.49 ± 0.086 and 5.45 ± 0.12. The like results for HRTRLQDLRVLVSNASEDTRRLRL [SCARA5] were, in that order, 3.29 ± 0.11 and 3.57 ± 0.15. With DDSVMKATQQARKRNFISSKSKQP [C22orf31], the protein stability index was found to be 4.87 ± 0.15 under setting [1] and 4.98 ± 0.2 under setting [2]. For GENAGSLTHIEAQNKIRACGERLS [PDLIM7] the same measures were 4.57 ± 0.26 and 4.62 ± 0.14. For RRKQRYWPFSMDCTGTEAHISSCK [LOXL2] the same measures were 3.17 ± 0.49 and 3.52 ± 0.57.

For DKPVTGPRNKTENGLTPKKKIQVN [ATF6], the protein stability index stood at 4.81 ± 0.31 under setting [1] and 4.63 ± 0.32 under setting [2].

Turning to SIPNLAEVKKKGKMKKLGQAMEED [HDAC6], the protein stability index runs as follows: under setting [1], 4.8 ± 0.088; under setting [2], 4.86 ± 0.44. The like results for QQEVVVAGSSLPTSSKVNATVPSN [ACBD3] were, in that order, 5.12 ± 0.34 and 4.98 ± 0.23. In the case of EQDAACGFCFFNSVAVAARHAQTI [HDAC6], the protein stability index reads like this: under setting [1], 1.99 ± 0.83; under setting [2], 1.95 ± 0.21.

In the case of QCGETMKETVNVKTVCGYYTSAGT [GMCL1], the protein stability index stood at 3.7 ± 0.22 under setting [1] and 3.77 ± 0.28 under setting [2]. The like results for DQWNILQTPILEGRSGPGCAVLDD [KLHL14] were, in that order, 4.37 ± 0.34 and 4.16 ± 0.26. Take RETYPRTPYVRWNYVAKNFAQALG [SOAT2]: the protein stability index by setting is: under setting [1], 2.34 ± 0.34; under setting [2], 2.17 ± 0.38.

Regarding EFNGLKKMNPKLKTLLAIGGWNFS [CHIT1], the protein stability index by setting is: under setting [1], 2.44 ± 0.57; under setting [2], 2.32 ± 0.34. For SLDTLLEAVESRGGVPGGCVLVPR [SMAD6], the protein stability index reads like this: under setting [1], 3.23 ± 0.17; under setting [2], 3.23 ± 0.25.

Take EGPKRELGVRRPGGAGKEGVRVNN [TCF25]: the protein stability index under setting [1] was 4.7 ± 0.12 and the protein stability index under setting [2] turned out to be 5.04 ± 0.16. For SFANDRENYDIIKTYHYLYLAMLE [FEM1B] the same measures were 2.44 ± 1.1 and 2.33 ± 0.61. For TNEKALEAVFGKYGRIVEVLLMKD [RBMX] the same measures were 1.97 ± 0.46 and 2.15 ± 0.29. For RSDGKTCAKLDSCALGDHGCEHSC [MATN2] the same measures were 4.54 ± 0.31 and 4.59 ± 0.32. With CTSSWDKNLKIWNVHTGEFRNCGA [WDR88], the protein stability index reads like this: under setting [1], 2.17 ± 0.42; under setting [2], 2.56 ± 0.31. For SAHRALYRRHVLGIVLQGPALCFA [TMEM175] the same measures were 2.71 ± 0.62 and 2.58 ± 0.62. For EPPPEVWQVLKTHPGDPRFQCSLW [POLD4], the protein stability index by setting is: under setting [1], 2.45 ± 0.42; under setting [2], 2.55 ± 0.31. The like results for LANACLPVRTTNKISKQFVAPADV [ZSWIM9] were, in that order, 3.27 ± 0.2 and 3.5 ± 0.21. Take EHRVAGIFPRLSFKDKSTYIESST [CLPTM1]: the protein stability index was 3.16 ± 0.2 under setting [1] and 2.93 ± 0.29 under setting [2]. The like results for YNWEEERATNHLDQVPSMQDGSES [SPAG8] were, in that order, 5.33 ± 0.23 and 5.44 ± 0.15. With KEQDVEKELRDGGEQDTWAGEGAE [NFE2L1], the protein stability index under setting [2] came out at 5.83 ± 0.073. The sequence TNKFYMLDSRSTDRVLQWERIDCQ [KLHDC2] showed a protein stability index under setting [1] of 2.43 ± 0.36 and a protein stability index under setting [2] of 2.8 ± 0.58. For KDMNFLKRYAGREEHWVGLKKEPG [CD69] the same measures were 3.61 ± 0.16 and 3.79 ± 0.21. The like results for PILKRKLPGSDVSGRLMGSPPVPG [FBXO28] were, in that order, 3.9 ± 0.3 and 4 ± 0.1. For the sequence KKIRQVIRKYNYVAMDTEFPGVVA [CNOT7], the protein stability index is, setting by setting: under setting [1], 2.79 ± 0.35; under setting [2], 2.24 ± 0.28. The like results for KVVLSDAYAHPQQKVAVYRALQAA [TRADD] were, in that order, 2.9 ± 0.41 and 3.24 ± 0.25. The like results for MYGVDLHHAKDSEGVEIMLGVCAS [EPB41L3] were, in that order, 2.71 ± 0.3 and 2.77 ± 0.51. For MCQTKHSPWADGTPCGPAQACMGG [ADAMTS4] the same measures were 3.26 ± 0.43 and 3.44 ± 0.4. For MCLKKNHEEEVSVLRCQLGDRLNV [KRT36], the protein stability index reads like this: under setting [1], 3.24 ± 0.29; under setting [2], 3.02 ± 0.35.

Consider QESYENVDSLESHIPSQEVPGTQV [ZNF263], for which the protein stability index runs as follows: under setting [1], 5.42 ± 0.22; under setting [2], 5.28 ± 0.22. Regarding SCAPSASIPKLKLTRPVPAGADLP [PWWP2B], the protein stability index reads like this: under setting [1], 3.21 ± 0.25; under setting [2], 3.35 ± 0.27. For DDCDDDDDDAQILPSPVQACSEDS [DRICH1] the same measures were 5.48 ± 0.46 and 5.62 ± 0.24. For RELEEYRREVERKQKGSEENLDEA [ADD1] the same measures were 5.57 ± 0.24 and 5.61 ± 0.17. The like results for ISVILPTVHEVDIFRCFCPVFLHS [DENND6A] were, in that order, 3.07 ± 0.19 and 3 ± 0.56. As for KEAVLAMEKKSKPKNSVWKRLKSP [RIT1], the protein stability index worked out at 4.23 ± 0.21 under setting [1] and 4.19 ± 0.27 under setting [2]. For CTLGDPNKLPEGVPQPARMPYISD [KLHL20] the same measures were 4.13 ± 0.24 and 4.18 ± 0.15. The like results for VMAWVKYSIQERRPQLPQVLQHVR [KLHL20] were, in that order, 2.41 ± 0.37 and 2.04 ± 0.34.

For the sequence QGKLIKRQRLAKNDRGDHYHWKDL [EFHC1], the protein stability index is, setting by setting: under setting [1], 3.36 ± 0.48; under setting [2], 3.71 ± 0.31.
